In patent US20160177307:

Target: PDGF-BB (platelet-derived growth factor BB) (Homo sapiens) (UniProt P01127)
Experiment: filter
[1] = all Z are BndU, rest DNA, SB18T, 37 C
[2] = Tyr, MBn, FBn, Ib, 2Nap, Pe, Th, NE dU, Heg, 2'-OMe
[3] = Trp, Ib, NE, Th, Pe, MBn dU, Heg, 2'-OMe

Chain of PDGF-BB (platelet-derived growth factor BB) (Homo sapiens) (P01127 82-190): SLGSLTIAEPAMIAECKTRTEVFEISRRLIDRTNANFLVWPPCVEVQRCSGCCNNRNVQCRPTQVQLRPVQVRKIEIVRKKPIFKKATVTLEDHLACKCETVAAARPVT

TTACACGCGTTTATAGCGTCAACCCGAGTGAACA [4149-8_18]
Kd [1]: 13 nM

TTACGACTACGTACACGCGTTTATAGCG [4149-8_75]
Kd (Bn-dU, C3 at 12): > 10 nM

TTACGACTACGTACACGCGTTTATAGCG [4149-8_76]
Kd (Bn-dU, C3 at 13): > 10 nM

TTACGACTACGTTACACCGTTTATAGCG [4149-8_81]
Kd (Bn-dU, C3 at 18): > 10 nM

TTACGACTACGTTACACGCGTTATAGCG [4149-8_84]
Kd (Bn-dU, C3 at 21): > 10 nM

TTACGACTACGTTACACGCGTTATAGCG [4149-8_85]
Kd (Bn-dU, C3 at 22): > 10 nM

TTACGACTACGTTACACGCGTTATAGCG [4149-8_86]
Kd (Bn-dU, C3 at 23): > 10 nM

TTACGACTACGTTACACGCGTTTA [4149-8_43]
Kd (Bn-dU): > 10 nM

TTACGACTACGTTACACGCGTTTAAGCG [4149-8_88]
Kd (Bn-dU, C3 at 25): > 10 nM

TTACGACTACGTTACACGCGTTTAT [4149-8_42]
Kd (Bn-dU): > 10 nM

TTACGACTACGTTACACGCGTTTATACG [4149-8_90]
Kd (Bn-dU, C3 at 27): > 10 nM

TTACGACTACGTTACACGCGTTTATAG [4149-8_40]
Kd (BndU at 1,2,8,12,13,21,22,23,25, rest DNA, SB18T, 37 C): 1.5 nM

TTACGACTACGTTACACGCGTTTATAGCG [4149-8_38]
Kd (BndU at 1,2,8,12,13,21,22,23,25, rest DNA, SB18T, 37 C, text p191 gives 20 pM, Table 1a 30 pM): 0.05 nM

TTACGACTACGTTACACGCGTTTATAGCG [4149-8_104]
Kd (Bn-dU, 2'-OMe U2): > 10 nM

TTACGACTACGTTACACGCGTTTATAGCG [4149-8_107]
Kd (Bn-dU, 2'-OMe U13): > 10 nM

TTACGACTACGTTACACGCGTTTATAGCG [4149-8_108]
Kd (Bn-dU, 2'-OMe U21): > 10 nM

TTACGACTACGTTACACGCGTTTATAGCG [4149-8_109]
Kd (Bn-dU, 2'-OMe U22): > 10 nM

TTACGACTACGTTACACGCGTTTATAGCG [4149-8_111]
Kd (Bn-dU, Nap-dU1, 2'-OMe U25): > 10 nM

TTACGACTACGTTACACGCGTTTATAGCGT [4149-8_37]
Kd [1]: 0.04 nM

TTACGACTACGTTACACGCGTTTATGCG [4149-8_89]
Kd (Bn-dU, C3 at 26): > 10 nM

TTACGACTACGTTACACGCTTTATAGCG [4149-8_83]
Kd (Bn-dU, C3 at 20): > 10 nM

TTACGACTACGTTACACGGTTTATAGCG [4149-8_82]
Kd (Bn-dU, C3 at 19): > 10 nM

TTACGACTACGTTCACGCGTTTATAGCG [4149-8_77]
Kd (Bn-dU, C3 at 14): > 10 nM

TTACGACTACTTACACGCGTTTATAGCG [4149-8_74]
Kd (Bn-dU, C3 at 11): > 10 nM

TTACGCCGTTACACGCGTTTATAGCG [4149-8_102]
Kd (Bn-dU, C3 linkers, 2'-OMe): > 10 nM

TTACGTTACACGCGTTTATAGCG [4149-8_127]
Kd (Bn-dU, Nap-dU, Heg, 2'-OMe U as printed): > 10 nM

TTACGTTACACGCGTTTATAGCG [4149-8_129]
Kd (Bn-dU, Nap-dU, Heg, 2'-OMe): > 10 nM

TTACGTTACACGCGTTTATAGCG [4149-8_134]
Kd (Bn-dU): > 10 nM

TTACGTTACACGCGTTTATAGCG [4149-8_178]
Kd (Bn-dU, Trp-dU8, Heg5, 2'-OMe A3, A11, A21, G24): > 10 nM

TTACGTTACACGCGTTTATAGCG [4149-8_179]
Kd (Bn-dU, Trp-dU16, Heg5, 2'-OMe A3, A11, A21, G24): > 10 nM

TTACGTTACACGCGTTTATAGCG [4149-8_180]
Kd (Bn-dU, Trp-dU17, Heg5, 2'-OMe A3, A11, A21, G24): > 10 nM

TTACGTTACACGCGTTTATAGCG [4149-8_186]
Kd (Bn-dU, 2Nap-dU8, Heg5, 2'-OMe A3, A11, A21, G24): > 10 nM

TTACGTTACACGCGTTTATAGCG [4149-8_196]
Kd (Bn-dU, 2NE-dU17, Heg5, 2'-OMe A3, A11, A21, G24): > 10 nM

TTACGTTACACGCGTTTATAGCG [4149-8_244]
Kd (Bn-dU, Heg5, 2'-OMe A3, A9, A11, A21, G24): > 10 nM

TTACGTTACACGCGTTTATAGCG [4149-8_250]
Kd [2]: > 10 nM

TTACGTTACACGCGTTTATAGCG [4149-8_251]
Kd [2]: > 10 nM

TTACGTTACACGCGTTTATAGCG [4149-8_252]
Kd [3]: > 10 nM

TTACGTTACACGCGTTTATAGCG [4149-8_253]
Kd [3]: > 10 nM

TTACGTTACACGCGTTTATAGCG [4149-8_258]
Kd (Bn-dU, 2'-OMe U7, Ib-dU8, Heg5, 2'-OMe A3, A11, A21, G24): > 10 nM

TTACGTTACACGCGTTTATAGCG [4149-8_276]
Kd (Bn-dU, FBn-dU7, Ib-dU8, Pe-dU17, Th-dU18, Heg5, 2'-OMe A3, A11, A21, G24): > 10 nM

TTACGTTACACGCGTTTATAGCG [4149-8_277]
Kd (Bn-dU, Tyr-dU1, Ib-dU8, Pe-dU17, Th-dU18, Heg5, 2'-OMe A3, A11, A21, G24): > 10 nM

TTACGTTACACGCGTTTATAGCG [4149-8_278]
Kd (Bn-dU, Tyr-dU1, FBn-dU7, Ib-dU8, 2Nap-dU16, Pe-dU17, Th-dU18, Heg5, 2'-OMe A3, A11, A21, G24): > 10 nM

TTACGTTACACGCGTTTATAGCG [4149-8_305]
Kd (Bn-dU, 2'-OMe Bn-U1, Heg5, 2'-OMe A3, A11, A21, G24): > 10 nM

TTACGTTACACGCGTTTATAGCG [4149-8_306]
Kd (Bn-dU, 2'-OMe Bn-U2, Heg5, 2'-OMe A3, A11, A21, G24): > 10 nM

TTACGTTACACGCGTTTATAGCG [4149-8_309]
Kd (Bn-dU, 2'-OMe Bn-U16, Heg5, 2'-OMe A3, A11, A21, G24): > 10 nM

TTACGTTACACGCGTTTATAGCG [4149-8_310]
Kd (Bn-dU, 2'-OMe Bn-U17, Heg5, 2'-OMe A3, A11, A21, G24): > 10 nM

TTACGTTACACGCGTTTATAGCG [4149-8_348]
Kd (Bn-dU, Pe-dU17, 2'-F A9, Heg, 2'-OMe): > 10 nM

TTACGTTACACGCGTTTATAGCG [4149-8_350]
Kd (Bn-dU, Pe-dU17, 2'-F C10, Heg, 2'-OMe): > 10 nM

TTACGTTACACGCGTTTATAGCG [4149-8_351]
Kd (Bn-dU, Pe-dU17, 2'-F C14, Heg, 2'-OMe): > 10 nM

TTACGTTACACGCGTTTATAGCG [4149-8_364]
Kd (Bn-dU, dT8, Heg5, 2'-OMe A3, A11, A21, G24): > 10 nM

TTACGTTACACGCGTTTATAGCGNT [4149-8_339]
Kd (4149-8_260 3'-3' dimer, C3, doubler): 0.0062 nM

TTACGTTACACGCGTTTATAGCGNT [4149-8_340]
Kd (4149-8_260 3'-3' dimer, Heg, doubler): 0.0189 nM

TTACGTTACACGCGTTTATAGCGNT [4149-8_341]
Kd (4149-8_260 3'-3' dimer, 2 Heg, doubler): 0.0272 nM

TTACGTTACACGCGTTTATAGCGNT [4149-8_342]
Kd (4149-8_260 3'-3' dimer, 3 Heg, doubler): 0.0181 nM

TTACGTTACCGCGTTTATAGCG [4149-8_379]
Kd (BndU at 1,8,16,17,20, MBndU at 2, Heg at 5, C3 at 11, 2'-OMe at A3,C12,A19,A21,G24 and 2'-OMe-BnU at 7,18, Table 30 gives 1.6E-11, Table 31 5.2E-11): 0.02 nM

TTACGTTACCGCGTTTATAGCG [4149-8_391]
Kd (BndU, PS 9,15, 2'-OMe, Heg 5, C3 11): 0.012 nM

TTACGTTACCGCGTTTATAGCG [4149-8_418]
Kd (as 4149-8_379, 2'-OMe 15): 0.21 nM

TTACGTTACCGCGTTTATAGCG [4149-8_419]
Kd (as 4149-8_379, 2'-OMe 15, NapdU 16): 1.3 nM

TTACGTTACCGCGTTTATAGCG [4149-8_420]
Kd (as 4149-8_379, 2'-OMe 15, iBudU 16): 1.4 nM

TTACGTTACCGCGTTTATAGCG [4149-8_421]
Kd (as 4149-8_379, 2'-OMe 13): 0.019 nM

TTACGTTACCGCGTTTATAGCG [4149-8_422]
Kd (as 4149-8_379, 2'-OMe 13,15): 0.27 nM

TTACGTTACCGCGTTTATAGCG [4149-8_423]
Kd (as 4149-8_379, 2'-OMe 13, NapdU 16): 0.033 nM

TTACGTTACCGCGTTTATAGCG [4149-8_424]
Kd (as 4149-8_379, 2'-OMe 13,14): 6.6 nM

TTACGTTACCGCGTTTATAGCG [4149-8_425]
Kd (as 4149-8_379, 2'-OMe 9): 0.91 nM

TTACGTTACCGCGTTTATAGCG [4149-8_426]
Kd (as 4149-8_379 plus 2'-OMe A9,G13 or G15 as printed in SEQ:409): 42 nM

TTACGTTACCGCGTTTATAGCG [4149-8_431]
Kd (as 4149-8_379, NapdU 16, PS 9,15,17): 0.043 nM

TTACGTTACCGCGTTTATAGCG [4149-8_432]
Kd (as 4149-8_379, PS 9,15,17): 0.029 nM

TTACGTTACCGCGTTTATAGCG [4149-8_433]
Kd (as 4149-8_379, NapdU 16, PS 9,15): 0.066 nM

TTACGTTACCGCGTTTATAGCG [4149-8_434]
Kd (as 4149-8_379, PS 9,15): 0.032 nM

TTACGTTACCGCGTTTATAGCG [4149-8_435]
Kd (as 4149-8_379, BndU 2, NapdU 16, PS 9,15,17): 0.016 nM

TTACGTTACCGCGTTTATAGCG [4149-8_436]
Kd (as 4149-8_379, BndU 2, PS 9,15,17): 0.0077 nM

TTACGTTACCGCGTTTATAGCG [4149-8_437]
Kd (as 4149-8_379, BndU 2, NapdU 16, PS 9,15): 0.0074 nM

TTACGTTACCGCGTTTATAGCG [4149-8_453]
Kd (BndU, NapdU 16, 2'-OMe 3,7,12,13,18,19,21,24, PS 9,15,16,17, Heg 5, C3 11): 0.002 nM

TTACGTTACCGCGTTTATAGCG [4149-8_454]
Kd (BndU at 1,2,8,17,20, NapdU at 16, Heg 5, C3 11, 2'-OMe at 3,7,12,18,19,21,24, PS 3' of 9,15,16,17, 3'-idT): 0.0013 nM

TTACGTTACCGCGTTTATAGCG [4149-8_455]
Kd (BndU, NapdU 16, 2'-OMe 3,7,12,13,18,19,21,24, PS 8,9,15,16,17, Heg 5, C3 11): 0.017 nM

TTACGTTACCGCGTTTATAGCG [4149-8_456]
Kd (BndU, NapdU 16, 2'-OMe 3,7,12,18,19,21,24, PS 8,9,15,16,17, Heg 5, C3 11): 0.027 nM

TTACGTTACGCGTTTATAGCG [4149-8_304]
Kd (Bn-dU, C3 linkers, 2'-OMe): > 10 nM

TTCGACTACGTTACACGCGTTTATAGCG [4149-8_66]
Kd (Bn-dU, C3 at 3): > 10 nM
